Test results as given in publication PMC7148561.
“And” between values parts separate entries of the source, which are not always exact repeats. Identical values can stand only once.

What was measured:
[1] = target: hHsp70 (human Hsp70A1), variant not told for the experiment (human) (UniProt P0DMV8); assay: SEC
[2] = target: the two labeling variants of hHsp70 containing the T204A mutation; assay: FRET or BRET
[3] = target: Cy3-labeled hHsp70 (E315C/I427C or I427C/K559C; variant not told for the printed rate); assay: FRET or BRET
[4] = target: hHsp70 NBD–SBDβ labeling variant E315C/I427C (human) (UniProt P0DMV8); assay: FRET or BRET
[5] = target: the two labeling variants of hHsp70 in the ATP-bound state (direct binding of JGF); assay: FRET or BRET

Hdj1, human type II Hsp40 homolog, full-length (from UniProt P25685 1-340) (natural protein)
stoichiometry N (hHsp70 molecules per Hdj1 dimer) [1]: 2
rate constant of direct binding [2]: 2.5 s⁻¹ and 1.5 s⁻¹
apparent rate constant of the fast binding phase [3]: 1.2 s⁻¹
kon [4]: 350000 M⁻¹ s⁻¹

J+G/F-rich segment (JGF) of Hdj1, residues 1–141 (from UniProt P25685 1-141) (domain or fragment)
apparent rate constant of direct binding [5]: 0.7 s⁻¹ and 1.6 s⁻¹
